Test results as given in paper PMC8153938 (ACS Omega, 2021).
Values belong to the molecule of their own block, whether it stands above or below them.

How the values were obtained:
[1] = molecular target: Unphosphorylated human Protein kinase R (PKR), wild type (human) (UniProt P19525); assay: AUC
AUC = molecular target: the molecule itself; assay: AUC

- Kd [1]: 702 µM
Molecule: Unphosphorylated human Protein kinase R (PKR), wild type (from UniProt P19525 1-551) (enzyme)

B1: PKR R107A (enzyme, human, UniProt P19525 1-551, looked up)
chain: MAGDLSAGFFMEELNTYRQKQGVVLKYQELPNSGPPHDRRFTFQVIIDGREFPEGEGRSKKEAKNAAAKLAVEILNKEKKAVSPLLLTTTNSSEGLSMGNYIGLINAIAQKKRLTVNYEQCASGVHGPEGFHYKCKMGQKEYSIGTGSTKQEAKQLAAKLAYLQILSEETSVKSDYLSSGSFATTCESQSNSLVTSTLASESSSEGDFSADTSEINSNSDSLNSSSLLMNGLRNNQRKAKRSLAPRFDLPDMKETKYTVDKRFGMDFKEIELIGSGGFGQVFKAKHRIDGKTYVIKRVKYNNEKAEREVKALAKLDHVNIVHYNGCWDGFDYDPETSDDSLESSDYDPENSKNSSRSKTKCLFIQMEFCDKGTLEQWIEKRRGEKLDKVLALELFEQITKGVDYIHSKKLIHRDLKPSNIFLVDTKQVKIGDFGLVTSLKNDGKRTRSKGTLRYMSPEQISSQDYGKEVDLYALGLILAELLHVCDTAFETSKFFTDLRDGIISDIFDKKEKTLLQKLLSKKPEDRPNTSEILRTLTVWKKSPEKNERHTC
- Kd (AUC): 704 µM
